Results from US20190185581A1 (University of California, published 2019).

Assays:
[1] = biological target: T1, catalytic domain of MMP-14 (cdMMP-14) (human, UniProt P50281 114-287, limits assumed, biotinylated (Sulfo-NHS-LC-Biotin) where immobilised via streptavidin); assay: ELISA, Fab titrated on immobilised biotin-cdMMP-14, anti-Fab-HRP
T1 construct: also called matrix metalloproteinase-14 catalytic domain; wild-type MMP-14

[2] = biological target: T1, catalytic domain of MMP-14 (cdMMP-14); assay: cell-based or functional assay
[3] = biological target: T1, catalytic domain of MMP-14 (cdMMP-14); assay: ELISA, Fab titrated on immobilised MMP-14 catalytic domain, anti-Fab-HRP
Protocol: Bound Fabs were detected using the anti-Fab-HRP conjugate. The half-maximal effective concentration (EC₅₀) was calculated from a four-parametric logistic curve-fitting analysis.

B1: Fab R2C9 (Fab, V domains shown)
VH: EVQLVESGGGLVQPGGSLRLSCAASGFNIYSYSMHWVRQAPGKGLEWVAYIYPYSGYTYYADSVKGRFTISADTSKNTAYLQMNSLRAEDTAVYYCARVLNIFMDVGAARFPGLVRYGMDYWGQGTLVTVSS
VL: DIQMTQSPSSLSASVGDRVTITCRAGQDVSSAVAWYQQKPGKAPKLLIYSASTLHSGVPSRFSGSRSGTDFTLTISSLQPEDFATYYCQQSGPYSLFTFGQGTKVEIKR
EC50 [1]: 657 nM
Inhibition potency (FRET IC50) [2]: 80 nM

B2: Fab 2H9 (Fab, V domains shown)
VH: EVQLVESGGGLVQPGGSLRLSCAASGFNIYYSSMHWVRQAPGKGLEWVASIYPYSGYTYYADSVKGRFTISADTSKNTAYLQMNSLRAEDTAVYYCARGTSFQVRCVLYRLLSPGRYVMDYWGQGTLVTVSS
VL: DIQMTQSPSSLSASVGDRVTITCRASQSVSSAVAWYQQKPGKAPKLLIYSASSLYSGVPSRFSGSRSGTDFTLTISSLQPEDFATYYCQQSGYSYPFTFGQGTKVEIKR
notes: not shown: His tag at the C-terminus of the heavy chain
EC50 [3]: 120 nM

B3: Fab 2E4 (Fab, V domains shown)
VH: EVQLVESGGGLVQPGGSLRLSCAASGFNLSYSYIHWVRQAPGKGLEWVAYISSSSGYTYYADSVKGRFTISADTSKNTAYLQMNSLRAEDTAVYYCARSARLRLRGNHDRRRSKSVYYRPYVMDYWGQGTLVTVSS
VL: DIQMTQSPSSLSASVGDRVTITCRASQSVSSAVAWYQQKPGKAPKLLIYSASSLYSGVPSRFSGSRSGTDFTLTISSLQPEDFATYYCQQSSPSFPITFGQGTKVEIKR
notes: as for B2
EC50 [3]: 840 nM

B4: Fab R2C6 (Fab, V domains shown)
VH: EVQLVESGGGLVQPGGSLRLSCAASGFNIYYSSMHWVRQAPGKGLEWVAYISPYYGYTSYADSVKGRFTISADTSKNTAYLQMNSLRAEDTAVYYCARKDLLKTNRLTTRYKKSVSVGYGMDYWGQGTLVTVSS
VL: DIQMTQSPSSLSASVGDRVTITCRASQSVSSAVAWYQQKPGKAPKLLIYSASSLYSGVPSRFSGSRSGTDFTLTISSLQPEDFATYYCQQYVYPPFTFGQGTKVEIKR
EC50 [1]: 2400 nM
Inhibition potency (FRET IC50) [2]: 2400 nM

B5: Fab R2C12 (Fab, V domains shown)
VH: EVQLVESGGGLVQPGGSLRLSCAASGFNISSSYMHWVRQAPGKGLEWVASIYSYSSYTYYADSVKGRFTISADTSKNTAYLQMNSLRAEDTAVYYCARSDSWVQGRDFCYYSAWVGYGMDYWGQGTLVTVSS
VL: DIQMTQSPSSLSASVGDRVTITCRASQSVSSAVAWYQQKPGKAPKLLIYSASSLYSGVPSRFSGSRSGTDFTLTISSLQPEDFATYYCQQGYYALFTFGQGTKVEIKR
EC50 [1]: 150 nM
Inhibition potency (FRET IC50) [2]: 150 nM

B6: Fab R3C10 (Fab, V domains shown)
VH: EVQLVESGGGLVQPGGSLRLSCAASGFNIYYSSMHWVRQAPGKGLEWVASISPYYGYTYYADSVKGRFTISADTSKNTAYLQMNSLRAEDTAVYYCARGSLRRDFNLVVRSSWDIRSNYVMDYWGQGTLVTVSS
VL: DIQMTQSPSSLSASVGDRVTITCRASQSVSSAVAWYQQKPGKAPKLLIYSASSLYSGVPSRFSGSRSGTDFTLTISSLQPEDFATYYCQQSWPYPITFGQGTKVEIKR
EC50 [1]: 970 nM
Inhibition potency (FRET IC50) [2]: 1000 nM

B7: Fab 32C11 (Fab, V domains shown)
VH: EVQLVESGGGLVQPGGSLRLSCAASGFNLYYSSIHWVRQAPGKGLEWVASISSYSSYTYYADSVKGRFTISADTSKNTAYLQMNSLRAEDTAVYYCAREIHMLSRQARYLRDGRRPRGSMYVMDYWGQGTLVTVSS
VL: DIQMTQSPSSLSASVGDRVTITCRASQSVSSAVAWYQQKPGKAPKLLIYSASSLYSGVPSRFSGSRSGTDFTLTISSLQPEDFATYYCQQYGAGLITFGQGTKVEIKR
notes: also called R3C7; not shown: His tag at the C-terminus of the heavy chain
EC50 [1]: 29 nM
EC50 [3]: 29 nM

B8: Fab 3B2 (Fab, V domains shown)
VH: EVQLVESGGGLVQPGGSLRLSCAASGFNFSSSSIHWVRQAPGKGLEWVASIYSSYSSTYYADSVKGRFTISADTSKNTAYLQMNSLRAEDTAVYYCARSTAATTLSRMSRSYWTIQLPYGMDYWGQGTLVTVSS
VL: DIQMTQSPSSLSASVGDRVTITCRASQSVSSAVAWYQQKPGKAPKLLIYSASSLYSGVPSRFSGSRSGTDFTLTISSLQPEDFATYYCQQSSYSLITFGQGTKVEIKR
notes: also called R2C1; not shown: His tag at the C-terminus of the heavy chain
EC50 [1]: 590 nM
EC50 [3]: 590 nM

B9: Fab 33F5 (Fab, V domains shown)
VH: EVQLVESGGGLVQPGGSLRLSCAASGFNLYYSYMHWVRQAPGKGLEWVAYISPSSSSTYYADSVKGRFTISADTSKNTAYLQMNSLRAEDTAVYYCARNFRVESAGRPGKTVLRKDGKYAMDYWGQGTLVTVSS
VL: DIQMTQSPSSLSASVGDRVTITCRASQSVSSAVAWYQQKPGKAPKLLIYSASSLYSGVPSRFSGSRSGTDFTLTISSLQPEDFATYYCQQSSVGLFTFGQGTKVEIKR
notes: also called R2C20; not shown: His tag at the C-terminus of the heavy chain
EC50 [1]: 1600 nM
EC50 [3]: 1600 nM

B10: Fab R2C4 (Fab, V domains shown)
VH: EVQLVESGGGLVQPGGSLRLSCAASGFNLSYYYMHWVRQAPGKGLEWVAYISSYSGYTYYADSVKGRFTISADTSKNTAYLQMNSLRAEDTAVYYCARGWRVYADRGHVRGYFRVWYGMDYWGQGTLVTVSS
VL: DIQMTQSPSSLSASVGDRVTITCRASQSVSSAVAWYQQKPGKAPKLLIYSASSLYSGVPSRFSGSRSGTDFTLTISSLQPEDFATYYCQQGAGLITFGQGTKVEIKR
EC50 [1]: 10000 nM
Inhibition potency (FRET IC50) [2]: 1500 nM

B11: Fab R3C15 (Fab, V domains shown)
VH: EVQLVESGGGLVQPGGSLRLSCAASGFNISYSYMHWVRQAPGKGLEWVASISPYSGYTYYADSVKGRFTISADTSKNTAYLQMNSLRAEDTAVYYCARGVRGNKLRLLSSRSGRMESHYVMDYWGQGTLVTVSS
VL: DIQMTQSPSSLSASVGDRVTITCRASQSVSSAVAWYQQKPGKAPKLLIYSASSLYSGVPSRFSGSRSGTDFTLTISSLQPEDFATYYCQQAGSLFTFGQGTKVEIKR
EC50 [1]: 57.5 nM
Inhibition potency (FRET IC50) [2]: 170 nM

B12: Fab R2C16 (Fab, V domains shown)
VH: EVQLVESGGGLVQPGGSLRLSCAASGFNIYSYSMHWVRQAPGKGLEWVASISSYYGYTYYADSVKGRFTISADTSKNTAYLQMNSLRAEDTAVYYCARFKNADFAAGGQWSKMLIARMYAMDYWGQGTLVTVSS
VL: DIQMTQSPSSLSASVGDRVTITCRASQSVSSAVAWYQQKPGKAPKLLIYSASSLYSGVPSRFSGSRSGTDFTLTISSLQPEDFATYYCQQYYSLITFGQGTKVEIKR
EC50 [1]: 1800 nM
Inhibition potency (FRET IC50) [2]: 5500 nM

B13: Fab R2C22 (Fab, V domains shown)
VH: EVQLVESGGGLVQPGGSLRLSCAASGFNIYSSYMHWVRQAPGKGLEWVASIYSSYGSTYYADSVKGRFTISADTSKNTAYLQMNSLRAEDTAVYYCARHSRDGWQHWFGNWAGLHSYGMDYWGQGTLVTVSS
VL: DIQMTQSPSSLSASVGDRVTITCRASQSVSSAVAWYQQKPGKAPKLLIYSASSLYSGVPSRFSGSRSGTDFTLTISSLQPEDFATYYCQQYYHYGYYLITFGQGTKVEIKR
EC50 [1]: 540 nM
Inhibition potency (FRET IC50) [2]: 75 nM

B14: Fab R3C8 (Fab, V domains shown)
VH: EVQLVESGGGLVQPGGSLRLSCAASGFNFSSSSIHWVRQAPGKGLEWVASIYPSYSYTYYADSVKGRFTISADTSKNTAYLQMNSLRAEDTAVYYCARHCLLRSRRCEMSTKTRELNVYRYAMDYWGQGTLVTVSS
VL: DIQMTQSPSSLSASVGDRVTITCRASQSVSSAVAWYQQKPGKAPKLLIYSASSLYSGVPSRFSGSRSGTDFTLTISSLQPEDFATYYCQQWPVGSSYPITFGQGTKVEIKR
EC50 [1]: 1300 nM
Inhibition potency (FRET IC50) [2]: 5400 nM

B15: Fab R2C8 (Fab, V domains shown)
VH: EVQLVESGGGLVQPGGSLRLSCAASGFNISSSSIHWVRQAPGKGLEWVASIYPYYGSTSYADSVKGRFTISADTSKNTAYLQMNSLRAEDTAVYYCARPGRHLQTTFKGYQFKYSRYIYAMDYWGQGTLVTVSS
VL: DIQMTQSPSSLSASVGDRVTITCRASQSVSSAVAWYQQKPGKAPKLLIYSASSLYSGVPSRFSGSRSGTDFTLTISSLQPEDFATYYCQQWGHHGYLITFGQGTKVEIKR
EC50 [1]: 1200 nM
Inhibition potency (FRET IC50) [2]: 1200 nM

B16: Fab 32E10 (Fab, V domains shown)
VH: EVQLVESGGGLVQPGGSLRLSCAASGFNIYSYSMHWVRQAPGKGLEWVAYIYPYSGYTYYADSVKGRFTISADTSKNTAYLQMNSLRAEDTAVYYCARLDRDRYIHVGRAGNTYSNYYYVMDYWGQGTLVTVSS
VL: DIQMTQSPSSLSASVGDRVTITCRASQSVSSAVAWYQQKPGKAPKLLIYSASSLYSGVPSRFSGSRSGTDFTLTISSLQPEDFATYYCQQPWGAASLITFGQGTKVEIKR
notes: also called R2C19; not shown: His tag at the C-terminus of the heavy chain
EC50 [1]: 9.7 nM
EC50 [3]: 9.7 nM

B17: Fab R3C13 (Fab, V domains shown)
VH: EVQLVESGGGLVQPGGSLRLSCAASGFNIYYSYMHWVRQAPGKGLEWVASISSYSGSTSYADSVKGRFTISADTSKNTAYLQMNSLRAEDTAVYYCARWLRVSLKSGVYKVLARAVELDEYVMDYWGQGTLVTVSS
VL: DIQMTQSPSSLSASVGDRVTITCRASQSVSSAVAWYQQKPGKAPKLLIYSASSLYSGVPSRFSGSRSGTDFTLTISSLQPEDFATYYCQQSGYYAWPITFGQGTKVEIKR
EC50 [1]: 2000 nM
Inhibition potency (FRET IC50) [2]: 2000 nM

B18: Fab R2C11 (Fab, V domains shown)
VH: EVQLVESGGGLVQPGGSLRLSCAASGFNLYYSSIHWVRQAPGKGLEWVAYIYPSYSYTYYADSVKGRFTISADTSKNTAYLQMNSLRAEDTAVYYCARRYGSDVFCVGCFFGVRLSYVMDYWGQGTLVTVSS
VL: DIQMTQSPSSLSASVGDRVTITCRASQSVSSAVAWYQQKPGKAPKLLIYSASSLYSGVPSRFSGSRSGTDFTLTISSLQPEDFATYYCQQYVSSGSLITFGQGTKVEIKR
EC50 [1]: 750 nM
Inhibition potency (FRET IC50) [2]: 600 nM
